These results are taken from patent publication US20250263490A1 (VIB VZW, published 2025).

A word on the Kd: it is a measure of binding affinity in units of concentration. By koff is commonly meant the first-order rate constant of dissociation. The kon is the rate constant with which the complex forms. In general, EC50 (read off the curve) refers to the concentration that produces a half-maximal response. Read a high EC50 (read off the curve) as weaker potency.

The target of assay [1] is T1, recombinant human domain 1-3His6 of the cation-independent mannose-6-phosphate receptor (human, UniProt P11717 41-467).
T1 construct: Biotinylated (NHS-PEG4-biotin) for BLI; Glycosylated; also called hDom1-3His6; hCI-M6PRD1-D3
The assay is described as follows: BLI, global 1:1 fit, pH 7.4. As to the method:
(§1) FIGS. 58 & 59. […] BLI was performed on an Octet Red96 (FortéBio) instrument in kinetics buffer (0.2 M Na₂HPO₄, 0.1 M Na⁺ citrate, 0.01% bovine serum albumin, 0.002% Tween-20). Biotinylated human domain₁₋₃His₆ was immobilized on Streptavidin SA biosensors (Sartorius) to a signal of 0.6 nm. […] Between assays, biosensors were regenerated by three times 10 s exposure to regeneration buffer (10 mM glycine pH 3). The degree of association and dissociation was measured in δ nm over time (s).
(§2) After loading, the tips were incubated with VHHs serially diluted in pH 7.4 kinetic buffer during the association phase and dissociation was performed at pH 7.4, pH 6.5, pH 6.0, pH 5.5 and pH 5.0. All biosensor tips were then regenerated before analysis of the subsequent VHH. Table 13 summarizes the kinetic parameters retrieved after processing and curve fitting of the BLI measurements. When both association and dissociation were performed at pH 7.4, a global fit was performed according to the 1:1 binding model of which the resulting affinity constants (KD), association (kₒₙ) and dissociation rate constants (koff) are shown. For measurements with association at pH 7.4 and dissociation at pH 6.5, 6.0, 5.5 and 5.0, the depicted dissociation rate constants are an average of the parameters determined by local curve fitting of the dissociation of 200, 100 and 50 nM VHH.
For orientation: BLI is a label-free optical method that tracks binding on a fibre tip over time.

Assay [2] deals with T1, recombinant human domain 1-3His6 of the …. The experiment in a line: BLI, dissoc pH 5.5, mean of local fits. As to the method: as §1, §2
For assay [3] the target is unchanged. The experiment in a line: BLI, dissoc pH 5, mean of local fits. As to the method:
as §1, §2

Assay [4] has the same target. The experiment in a line: BLI, dissoc pH 6.5, mean of local fits. The procedure:
as §1, §2

Assay [5] shares this target. The assay is described as follows: BLI, dissoc pH 6, mean of local fits. The procedure: as §1, §2
The target is the same in assay [6]. The experiment in a line: BLI exp 2, dissoc pH not printed (between 7 and 6, presumably 6.5).
For assay [7] the target is unchanged. The assay is described as follows: BLI exp 2, dissoc pH not printed (between 7 and 6, presumably 6.5); pH not given; row between pH 7 and pH 6 (6.5 in the VHH1, VHH7 and VHH8 blocks).
Assay [8] shares this target. The experiment in a line: BLI at pH 7.4, 2nd of 2 repeats; BLI, biotinylated hDom1-3His6 on streptavidin tips, pH 7.4, experiment 2.
Assay [9] deals with T2, mouse cation-independent mannose-6-phosphate receptor on cells (mouse, UniProt Q07113 36-2483).
T2 construct: whole, on cells; also called mouse CI-M6PR of bEND3 cells; mCI-M6PR
The assay is described as follows: flow cytometry on fixed/permeabilised mouse bEND3 cells (sheet: Binding FACS in bEND3 (Fixed/Permeabilized); legend: internalisation detected upon permeabilisation) [upper graph]. From the text: Synthetic DNA fragments encoding VHHs were ordered (IDT, Leuven, Belgium) and subcloned into an E. coli expression vector under control of an IPTG-inducible lac promoter, in frame with N-terminal PelB signal peptide (which directs the recombinant proteins to the periplasmic compartment) and C-terminal FLAG3 and His6 tags. […] VHH proteins were purified from these clones by means of IMAC chromatography followed by desalting according to well established procedures¹⁰⁶. Cells used herein were recovered using cell dissociation non-enzymatic solution (Sigma Aldrich, cat. #C5914-100ML) and resuspended to a final concentration of 1,000,000 cells/mL in FACS buffer. Cells were incubated with different concentrations of purified FLAG3-tagged VHHs for 30 minutes on ice with shaking, followed by washing and incubation with mouse M2 anti-Flag mAb (Sigma Aldrich, cat. #F-1804) in FACS buffer for 30 min on ice with shaking, followed again by washing. […] Flow cytometry and analysis were done on an Attune NxT Flow Cytometer (Thermo Fisher Scientific).
For orientation: A flow cytometer gives signals particle by particle.

Assay [10] deals with T1, recombinant human domain 1-3His6 of the …. The assay is described as follows: BLI.

T2 sequence (Q07113 36-2483): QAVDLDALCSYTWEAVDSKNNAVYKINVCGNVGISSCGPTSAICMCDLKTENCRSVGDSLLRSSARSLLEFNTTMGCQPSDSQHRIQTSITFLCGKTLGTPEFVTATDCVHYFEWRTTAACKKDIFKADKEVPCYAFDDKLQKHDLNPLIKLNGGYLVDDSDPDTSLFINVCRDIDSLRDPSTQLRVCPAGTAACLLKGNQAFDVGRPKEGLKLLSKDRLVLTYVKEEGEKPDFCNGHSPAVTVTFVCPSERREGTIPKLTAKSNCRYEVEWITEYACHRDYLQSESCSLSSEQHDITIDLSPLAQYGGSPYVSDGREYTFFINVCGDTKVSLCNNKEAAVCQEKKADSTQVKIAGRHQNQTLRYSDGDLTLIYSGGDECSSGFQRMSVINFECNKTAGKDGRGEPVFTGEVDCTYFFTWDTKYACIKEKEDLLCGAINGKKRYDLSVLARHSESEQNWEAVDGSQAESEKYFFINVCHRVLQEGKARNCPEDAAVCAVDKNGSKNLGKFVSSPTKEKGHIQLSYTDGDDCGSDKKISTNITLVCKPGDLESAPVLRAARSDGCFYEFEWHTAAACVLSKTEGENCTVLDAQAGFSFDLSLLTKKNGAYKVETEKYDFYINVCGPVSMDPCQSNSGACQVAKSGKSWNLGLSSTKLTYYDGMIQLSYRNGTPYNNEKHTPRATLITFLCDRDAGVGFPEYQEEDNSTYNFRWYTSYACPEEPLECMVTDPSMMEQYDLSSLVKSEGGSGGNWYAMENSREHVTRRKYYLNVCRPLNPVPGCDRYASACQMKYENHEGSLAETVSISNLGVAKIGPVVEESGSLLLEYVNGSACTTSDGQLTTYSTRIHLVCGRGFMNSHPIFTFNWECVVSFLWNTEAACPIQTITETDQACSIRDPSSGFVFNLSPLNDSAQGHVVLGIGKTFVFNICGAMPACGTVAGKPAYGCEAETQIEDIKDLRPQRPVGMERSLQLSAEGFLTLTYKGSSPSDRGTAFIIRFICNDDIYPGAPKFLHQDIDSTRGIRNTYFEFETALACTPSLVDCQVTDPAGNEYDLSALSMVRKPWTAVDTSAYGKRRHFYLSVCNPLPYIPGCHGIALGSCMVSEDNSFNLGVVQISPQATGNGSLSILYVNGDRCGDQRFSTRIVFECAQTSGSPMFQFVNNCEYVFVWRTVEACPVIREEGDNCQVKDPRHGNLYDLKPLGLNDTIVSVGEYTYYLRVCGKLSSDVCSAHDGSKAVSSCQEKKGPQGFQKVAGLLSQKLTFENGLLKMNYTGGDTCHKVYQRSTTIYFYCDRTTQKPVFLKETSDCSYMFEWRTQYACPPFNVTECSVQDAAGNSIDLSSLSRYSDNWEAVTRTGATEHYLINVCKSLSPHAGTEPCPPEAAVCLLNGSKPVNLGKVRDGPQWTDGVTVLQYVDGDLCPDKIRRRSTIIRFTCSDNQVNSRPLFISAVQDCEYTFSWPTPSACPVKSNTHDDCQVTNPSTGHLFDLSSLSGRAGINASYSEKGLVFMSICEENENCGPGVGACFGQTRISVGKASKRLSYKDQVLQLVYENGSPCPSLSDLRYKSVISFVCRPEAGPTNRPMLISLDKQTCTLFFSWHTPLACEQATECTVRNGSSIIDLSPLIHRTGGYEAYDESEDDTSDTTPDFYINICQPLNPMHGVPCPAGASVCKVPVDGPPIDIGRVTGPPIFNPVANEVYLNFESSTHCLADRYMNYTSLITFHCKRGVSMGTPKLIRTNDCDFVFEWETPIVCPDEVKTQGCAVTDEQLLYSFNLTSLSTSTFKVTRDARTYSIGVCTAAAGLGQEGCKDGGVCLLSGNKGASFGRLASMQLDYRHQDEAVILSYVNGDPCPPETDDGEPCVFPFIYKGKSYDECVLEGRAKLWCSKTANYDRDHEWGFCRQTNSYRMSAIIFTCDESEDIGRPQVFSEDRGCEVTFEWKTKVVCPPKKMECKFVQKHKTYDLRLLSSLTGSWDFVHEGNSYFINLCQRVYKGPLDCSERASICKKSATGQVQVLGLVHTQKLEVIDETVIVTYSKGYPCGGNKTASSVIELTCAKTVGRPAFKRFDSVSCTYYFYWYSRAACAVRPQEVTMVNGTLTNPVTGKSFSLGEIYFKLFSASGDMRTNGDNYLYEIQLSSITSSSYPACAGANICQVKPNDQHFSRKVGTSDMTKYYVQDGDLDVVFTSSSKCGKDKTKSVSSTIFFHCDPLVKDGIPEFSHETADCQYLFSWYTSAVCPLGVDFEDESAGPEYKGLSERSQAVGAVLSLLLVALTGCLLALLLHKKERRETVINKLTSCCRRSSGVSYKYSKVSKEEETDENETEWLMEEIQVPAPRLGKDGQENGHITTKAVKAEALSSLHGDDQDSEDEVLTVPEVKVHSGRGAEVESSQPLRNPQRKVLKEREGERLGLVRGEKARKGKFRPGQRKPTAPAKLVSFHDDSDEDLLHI

B1: anti-CI-M6PR VHH 1H11 (VHH)
VHH: QVQLQESGGGLVQPGGSLRLSCAASGIIFSDNRMDWYRQAPGKQREWVATLASYGWKTYADSVKDRFTISRDNAKNTVNLYMNSLQPEDTAVYYCNSGQYWGQGTQVTVSS
notes: made in E. coli WK6, His-tag purified
Turning to B1, in assay [1], the Kd was 4.9 nM. The koff was 0.0025 s⁻¹ in assay [1]; 0.0063 s⁻¹ in assay [2]; 0.0083 s⁻¹ in [3]; 0.0048 s⁻¹ in [4]; 0.0051 s⁻¹ in assay [5]. The association rate constant (kon) in assay [1] worked out at 510000 M⁻¹ s⁻¹.

B2: anti-CI-M6PR VHH5 (VHH)
VHH: QVQLQESGGGLVQAGGSLKLSCAAAGRTFSRLAMGWFRQAPGKEREFVAAISENGDSIHYSDSVKGRFAVSRDNAKNTVYLQMNSLKPEDTAIYYCAADRAAYYCSGSGCYPSRAPAAASYDYWGQGTQVTVSS
notes: His6-tagged; made in Pichia pastoris, later also in E. coli WK6
As to B2, in assay [6], the koff turned out to be 0.00017 s⁻¹. Further, the kon in assay [7] stood at 1.3e+06 M⁻¹ s⁻¹.

B3: anti-CI-M6PR VHH4 (VHH)
VHH: QVQLQESGGGLVQAGGSLRLSCAASGRTFSNYVMGWFRQAPGKEREFVGSISQGGKMTYYPDSVKGRFTISRDNAKNTMYLQMDGLKPEDTAVYYCAVSRGYPMVRVSEVDYWGQGTQVTVSS
notes: His6-tagged; made in Pichia pastoris
Consider B3, for which, in assay [8], the equilibrium dissociation constant (Kd) came to 2.34 nM and the kon is 571000 M⁻¹ s⁻¹.

B4: anti-CI-M6PR VHH7 (VHH)
VHH: QVQLQESGGGLVQPGGSLRLSCAASGIIFSDNRMDWYRQAPGKQREWVATLASYGWKTYADSVKGRFTISRDNTKNTVYLRMNSLKPEDTAVYYCKASSPVLNDIWGQGTQVTVSS
notes: His6-tagged (Pichia pastoris)
For B4, the “EC50 (read off the curve)” value in assay [9] is approximately 50 nM. Moreover, the “fold higher dissociation rate at pH 6.0 versus pH 7.4” value in assay [10] turned out to be 5 fold.
